Patent US20250388702A1 (Dana-Farber, published 2025)

Tests used:
KIR2DL5A = biological target: T1, KIR2DL5A (UniProt Q8N109 22-375, limits assumed); experiment: HEK293 cell microarray, hybridoma supernatant
T1 construct: whole, on cells
Description: In Table 4, replicate microarray slides expressing the KIR family cDNA panel (as in FIG. 1A, FIG. 2B, and FIG. 2C) were fixed and blocked with buffer containing PBS/0.5% BSA and incubated for 1 hour at room temperature with individual KIR3DL3 mAb hybridoma supernatants at 1:5, 1:25 and 1:250 dilutions in PBS/0.1% BSA. Cell arrays were washed with PBS and incubated for 1 hour at room temperature in PBS/0.1% BSA containing AF647-conjugated goat anti-mouse IgG (H+L) (Life Technologies, A21235). Slides were washed with PBS, dried, and imaged for ZsGreen1 and AF647 fluorescence.

KIR3DL2 = biological target: T2, KIR3DL2 (UniProt P43630 22-455, limits assumed); experiment: HEK293 cell microarray
T2 construct: whole, on cells

KIR2DL2 = biological target: T3, KIR2DL2 (UniProt P43627 22-348, limits assumed); experiment: HEK293 cell microarray
T3 construct: whole, on cells

KIR2DS5 = biological target: T4, KIR2DS5 (UniProt Q14953 22-304, limits assumed); experiment: HEK293 cell microarray
T4 construct: whole, on cells

KIR2DS1 = biological target: T5, KIR2DS1 (UniProt Q14954 22-304, limits assumed); experiment: HEK293 cell microarray
T5 construct: whole, on cells

KIR2DL1 = biological target: T6, KIR2DL1 (UniProt P43626 22-348, limits assumed); experiment: HEK293 cell microarray
T6 construct: whole, on cells

KIR2DS3 = biological target: T7, KIR2DS3 (UniProt Q14952 22-304, limits assumed); experiment: HEK293 cell microarray
T7 construct: whole, on cells

KIR2DL3 = biological target: T8, KIR2DL3 (UniProt P43628 22-341, limits assumed); experiment: HEK293 cell microarray
T8 construct: whole, on cells

KIR3DS1 = biological target: T9, KIR3DS1 (UniProt Q14943 22-382, limits assumed); experiment: HEK293 cell microarray
T9 construct: whole, on cells

KIR2DL4 = biological target: T10, KIR2DL4 (UniProt Q99706 22-377, limits assumed); experiment: HEK293 cell microarray
T10 construct: whole, on cells

KIR2DS2 = biological target: T11, KIR2DS2 (UniProt P43631 22-304, limits assumed); experiment: HEK293 cell microarray
T11 construct: whole, on cells

KIR3DL1 = biological target: T12, KIR3DL1 (UniProt P43629 22-444, limits assumed); experiment: HEK293 cell microarray
T12 construct: whole, on cells
T12 sequence (P43629 22-444 limits assumed): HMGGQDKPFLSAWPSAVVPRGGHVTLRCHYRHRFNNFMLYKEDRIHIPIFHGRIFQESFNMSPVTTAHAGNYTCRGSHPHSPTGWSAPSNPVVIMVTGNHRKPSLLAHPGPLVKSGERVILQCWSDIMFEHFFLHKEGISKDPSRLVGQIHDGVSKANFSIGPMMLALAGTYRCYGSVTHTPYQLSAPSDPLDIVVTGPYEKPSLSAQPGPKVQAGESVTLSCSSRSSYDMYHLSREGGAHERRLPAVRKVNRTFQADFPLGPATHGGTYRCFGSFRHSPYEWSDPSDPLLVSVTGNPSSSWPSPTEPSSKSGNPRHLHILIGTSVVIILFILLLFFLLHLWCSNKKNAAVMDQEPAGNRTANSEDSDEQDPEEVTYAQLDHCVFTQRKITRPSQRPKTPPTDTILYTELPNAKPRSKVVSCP

T4 sequence (Q14953 22-304 limits assumed): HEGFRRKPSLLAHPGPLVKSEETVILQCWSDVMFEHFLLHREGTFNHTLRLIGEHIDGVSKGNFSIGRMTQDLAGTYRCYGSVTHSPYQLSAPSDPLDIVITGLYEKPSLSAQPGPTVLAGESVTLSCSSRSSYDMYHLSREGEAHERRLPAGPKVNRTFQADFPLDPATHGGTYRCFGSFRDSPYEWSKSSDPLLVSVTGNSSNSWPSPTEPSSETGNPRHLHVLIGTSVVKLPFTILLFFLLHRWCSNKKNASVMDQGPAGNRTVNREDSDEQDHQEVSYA
T10 sequence (Q99706 22-377 limits assumed): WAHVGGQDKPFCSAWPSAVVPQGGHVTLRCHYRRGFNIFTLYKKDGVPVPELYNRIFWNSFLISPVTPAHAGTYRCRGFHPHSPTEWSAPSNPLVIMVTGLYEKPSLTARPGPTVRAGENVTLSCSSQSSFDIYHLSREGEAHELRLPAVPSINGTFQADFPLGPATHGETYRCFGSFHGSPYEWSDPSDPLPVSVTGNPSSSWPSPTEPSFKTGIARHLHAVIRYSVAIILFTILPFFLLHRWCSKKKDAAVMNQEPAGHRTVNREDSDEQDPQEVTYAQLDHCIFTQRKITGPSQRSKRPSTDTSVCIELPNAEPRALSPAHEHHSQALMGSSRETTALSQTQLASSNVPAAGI
T11 sequence (P43631 22-304 limits assumed): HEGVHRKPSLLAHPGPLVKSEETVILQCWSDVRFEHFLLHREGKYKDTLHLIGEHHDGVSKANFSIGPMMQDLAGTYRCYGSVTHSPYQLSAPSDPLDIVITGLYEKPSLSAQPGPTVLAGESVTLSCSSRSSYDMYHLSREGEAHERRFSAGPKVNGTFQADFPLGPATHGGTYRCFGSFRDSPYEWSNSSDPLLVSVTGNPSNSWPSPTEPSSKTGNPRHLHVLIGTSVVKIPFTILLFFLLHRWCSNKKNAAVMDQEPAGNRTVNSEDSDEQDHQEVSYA
T9 sequence (Q14943 22-382 limits assumed): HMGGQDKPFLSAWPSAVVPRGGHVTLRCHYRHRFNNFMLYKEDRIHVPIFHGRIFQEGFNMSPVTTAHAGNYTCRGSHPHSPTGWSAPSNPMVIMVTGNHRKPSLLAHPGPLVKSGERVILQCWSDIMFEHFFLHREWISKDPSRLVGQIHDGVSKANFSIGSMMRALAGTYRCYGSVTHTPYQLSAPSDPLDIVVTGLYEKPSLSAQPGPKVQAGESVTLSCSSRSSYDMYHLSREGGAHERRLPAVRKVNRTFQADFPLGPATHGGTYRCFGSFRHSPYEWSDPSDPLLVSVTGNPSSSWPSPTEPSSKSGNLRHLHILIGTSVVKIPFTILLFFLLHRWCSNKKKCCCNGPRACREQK
T5 sequence (Q14954 22-304 limits assumed): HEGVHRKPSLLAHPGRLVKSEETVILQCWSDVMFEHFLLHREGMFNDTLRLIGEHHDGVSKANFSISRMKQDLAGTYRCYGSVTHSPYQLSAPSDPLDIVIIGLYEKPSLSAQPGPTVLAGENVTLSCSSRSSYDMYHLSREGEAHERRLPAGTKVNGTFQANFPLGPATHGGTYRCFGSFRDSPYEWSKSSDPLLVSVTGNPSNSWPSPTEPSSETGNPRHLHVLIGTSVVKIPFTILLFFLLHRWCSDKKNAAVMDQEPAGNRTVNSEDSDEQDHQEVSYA
T1 sequence (Q8N109 22-375 limits assumed): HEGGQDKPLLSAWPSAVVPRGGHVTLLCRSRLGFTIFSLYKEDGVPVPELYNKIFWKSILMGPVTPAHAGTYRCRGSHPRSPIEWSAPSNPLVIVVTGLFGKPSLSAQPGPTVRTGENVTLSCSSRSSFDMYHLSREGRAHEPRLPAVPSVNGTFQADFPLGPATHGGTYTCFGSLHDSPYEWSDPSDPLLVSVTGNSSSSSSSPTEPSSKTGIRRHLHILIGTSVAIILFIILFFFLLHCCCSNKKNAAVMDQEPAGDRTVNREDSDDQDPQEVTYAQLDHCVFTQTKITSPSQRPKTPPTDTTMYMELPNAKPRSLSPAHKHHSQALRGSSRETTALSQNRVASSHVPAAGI
T7 sequence (Q14952 22-304 limits assumed): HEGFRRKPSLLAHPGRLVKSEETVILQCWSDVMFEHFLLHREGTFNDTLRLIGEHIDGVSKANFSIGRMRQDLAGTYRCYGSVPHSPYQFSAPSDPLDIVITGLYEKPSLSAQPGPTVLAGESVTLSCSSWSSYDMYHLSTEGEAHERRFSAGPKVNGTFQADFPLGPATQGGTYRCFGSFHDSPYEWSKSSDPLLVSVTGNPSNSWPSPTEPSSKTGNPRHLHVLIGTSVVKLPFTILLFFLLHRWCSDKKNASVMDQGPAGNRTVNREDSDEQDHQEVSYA
T8 sequence (P43628 22-341 limits assumed): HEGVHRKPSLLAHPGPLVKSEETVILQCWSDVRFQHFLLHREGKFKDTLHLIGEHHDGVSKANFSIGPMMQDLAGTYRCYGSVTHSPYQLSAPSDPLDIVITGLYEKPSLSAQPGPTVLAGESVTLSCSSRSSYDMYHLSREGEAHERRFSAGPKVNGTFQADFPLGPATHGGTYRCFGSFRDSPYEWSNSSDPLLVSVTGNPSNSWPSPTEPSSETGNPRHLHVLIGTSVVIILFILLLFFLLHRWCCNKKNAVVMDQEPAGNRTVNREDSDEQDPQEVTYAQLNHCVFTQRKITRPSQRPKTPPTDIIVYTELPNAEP
T6 sequence (P43626 22-348 limits assumed): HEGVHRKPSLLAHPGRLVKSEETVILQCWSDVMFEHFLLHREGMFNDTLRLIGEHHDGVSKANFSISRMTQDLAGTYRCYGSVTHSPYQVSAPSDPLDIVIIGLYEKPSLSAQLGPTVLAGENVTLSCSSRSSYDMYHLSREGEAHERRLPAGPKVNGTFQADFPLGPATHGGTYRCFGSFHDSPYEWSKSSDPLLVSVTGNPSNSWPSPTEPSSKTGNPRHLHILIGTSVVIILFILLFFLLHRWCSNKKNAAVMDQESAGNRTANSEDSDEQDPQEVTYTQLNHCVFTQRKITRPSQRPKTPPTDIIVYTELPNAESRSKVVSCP
T2 sequence (P43630 22-455 limits assumed): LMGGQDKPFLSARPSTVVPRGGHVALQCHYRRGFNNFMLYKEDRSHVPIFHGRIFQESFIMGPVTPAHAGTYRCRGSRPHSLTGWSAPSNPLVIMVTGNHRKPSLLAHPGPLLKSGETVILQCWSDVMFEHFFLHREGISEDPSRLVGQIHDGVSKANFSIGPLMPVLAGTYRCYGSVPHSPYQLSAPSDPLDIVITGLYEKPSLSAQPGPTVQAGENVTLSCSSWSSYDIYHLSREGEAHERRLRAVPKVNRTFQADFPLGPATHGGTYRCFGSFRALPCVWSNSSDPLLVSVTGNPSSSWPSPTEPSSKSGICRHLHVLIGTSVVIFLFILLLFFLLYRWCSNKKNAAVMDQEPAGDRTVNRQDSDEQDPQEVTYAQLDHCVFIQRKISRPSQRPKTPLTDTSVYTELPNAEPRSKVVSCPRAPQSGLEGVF
T3 sequence (P43627 22-348 limits assumed): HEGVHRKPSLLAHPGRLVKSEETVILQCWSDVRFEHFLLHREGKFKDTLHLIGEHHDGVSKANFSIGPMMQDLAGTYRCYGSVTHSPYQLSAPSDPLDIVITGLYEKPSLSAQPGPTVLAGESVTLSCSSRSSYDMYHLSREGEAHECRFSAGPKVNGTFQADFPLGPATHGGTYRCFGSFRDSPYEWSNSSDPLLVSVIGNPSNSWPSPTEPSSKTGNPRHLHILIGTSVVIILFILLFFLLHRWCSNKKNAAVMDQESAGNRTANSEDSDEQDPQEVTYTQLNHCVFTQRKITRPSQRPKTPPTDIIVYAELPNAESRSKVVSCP

binding result (KIR2DL5A): binds
B1: KIR3DL3 mAb 574.2.8C2.12.3.10 (antibody, IgG2a, V domains shown)
VH: KVQLQQSGAELVRPGTSVKVSCKASGYAFTNYLIEWVKQRPGQGLEWIGVINPGSGGTNDNEKFRDKATLTADKSSSTAYMQLSSLTSDDSAVYFCARGNYYGTTDWYFDVWGAGTTVTVSS
VL: QIVLTQSPAIMSASLGERVTMTCTASASVSSSSLHWYQQKPGSPPKFWIYSTTNLASGVPTRFSGSGSGTSYSLTISNMEAEDAATYYCHQYHRSPPTFGGGTKLEIK
notes: Mouse hybridoma antibody, IgG2a; only variable domains given; also called AVS-3706
binding result (KIR3DL2): no binding (tested: supernatant 1:5, 1:25, 1:250) | binding result (KIR2DL2): no binding (tested: supernatant 1:5, 1:25, 1:250) | binding result (KIR2DS5): no binding (tested: supernatant 1:5, 1:25, 1:250) | binding result (KIR2DS1): no binding (tested: supernatant 1:5, 1:25, 1:250) | binding result (KIR2DL1): no binding (tested: supernatant 1:5, 1:25, 1:250) | binding result (KIR2DS3): no binding (tested: supernatant 1:5, 1:25, 1:250) | binding result (KIR2DL3): no binding (tested: supernatant 1:5, 1:25, 1:250) | binding result (KIR3DS1): no binding (tested: supernatant 1:5, 1:25, 1:250) | binding result (KIR2DL4): no binding (tested: supernatant 1:5, 1:25, 1:250) | binding result (KIR2DS2): no binding (tested: supernatant 1:5, 1:25, 1:250) | binding result (KIR3DL1): no binding (tested: supernatant 1:5, 1:25, 1:250)
